We go through one molecule from US20160175440A1, “COMPOSITIONS AND METHODS FOR THE […] OF BURKHOLDERIA INFECTIONS” (Research Institute at Nationwide Children's Hospital, published 2016).

The target of the data set is Integration host factor (IHF alpha/beta heterodimer) (Escherichia coli, UniProt P0A6X7;P0A6Y1 SEQ:1-99,SEQ:1-94). Briefly: footprint; DNase I footprint at 50 nM IHF; hypersensitive site indicative of DNA bending. The note with it: tags: crystallographically pure IHF, gift of Howard Nash, NIH; no tag stated; label: 32P end label.
Integration host factor (IHF alpha/beta heterodimer), sequence (P0A6X7 whole entry, chain 1 of 2): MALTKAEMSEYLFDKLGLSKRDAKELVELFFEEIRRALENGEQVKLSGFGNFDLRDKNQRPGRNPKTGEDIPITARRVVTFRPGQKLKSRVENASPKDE
Integration host factor (IHF alpha/beta heterodimer), sequence (P0A6Y1 whole entry, chain 2 of 2): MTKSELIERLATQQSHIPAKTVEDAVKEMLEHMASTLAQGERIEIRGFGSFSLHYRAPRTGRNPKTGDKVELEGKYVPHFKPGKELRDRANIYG

B1: 386 bp BCAL0339-BCAL0340 intergenic region (T6SS gene cluster upstream) (dsDNA)
DNA 1: TCTCAACGATTTA
DNA 2: TAAATCGTTGAGA
Regarding B1, the binding result is “binds”.
